The values that follow come from article PMC10397247.

Common to all, as to assay: two-hybrid library CCNG1;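 note: natural log of median RNA to DNA barcode read ratio; higher means stronger binding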
One assay addresses T1, 4H2473-bN.
T1 chain: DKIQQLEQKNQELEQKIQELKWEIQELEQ

The next assay concerns the target T2, 4H2503-bN.
T2 chain: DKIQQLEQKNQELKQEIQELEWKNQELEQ

The target of a further assay is T3, 4H2588-bN.
T3 chain: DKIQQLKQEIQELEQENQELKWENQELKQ

For a further assay, the target named is T4, 4H2673-bH.
T4 chain: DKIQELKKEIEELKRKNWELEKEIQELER

In a further assay the target is T5, 4H2692-bN.
T5 chain: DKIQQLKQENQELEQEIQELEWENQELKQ

In a further assay the target is T6, 4H2717-bN.
T6 chain: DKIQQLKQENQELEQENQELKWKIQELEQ

For the next assay, the target named is T7, 4H2839-bN.
T7 chain: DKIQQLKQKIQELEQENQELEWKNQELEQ

Another assay deals with T8, 4H2915-bN.
T8 chain: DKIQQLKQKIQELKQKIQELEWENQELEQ

The target of a further assay is T9, 4H3057-bN.
T9 chain: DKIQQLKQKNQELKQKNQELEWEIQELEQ

The target in a further assay is T10, 4H319-bN.
T10 chain: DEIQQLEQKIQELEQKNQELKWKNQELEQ

For a further assay, the target named is T11, 4H3277-bN.
T11 chain: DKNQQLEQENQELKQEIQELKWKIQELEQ

The target of another assay is T12, 4H348-bN.
T12 chain: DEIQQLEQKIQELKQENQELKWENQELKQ

Another assay deals with T13, 4H40-bN.
T13 chain: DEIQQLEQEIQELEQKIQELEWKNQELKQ

The next assay has as its target T14, 4H477-bN.
T14 chain: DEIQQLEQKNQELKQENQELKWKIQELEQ

Another assay has as its target T15, 4H492-bN.
T15 chain: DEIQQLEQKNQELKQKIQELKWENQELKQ

The next assay has as its target T16, 4H741-bN.
T16 chain: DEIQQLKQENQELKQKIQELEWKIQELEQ

With DKIQQLEQKNQELEQKIQELKWEIQELEQ [4H2473-bN], the interaction score with 4H2473-bN was 0.273; with 4H2503-bN it was -1.11; with 4H2588-bN, -1.58; with 4H2673-bH it was 0.46; with 4H2692-bN, -0.666; with 4H2717-bN it was -2.13. Further, the interaction score with 4H2839-bN was -1.21; in the assay with 4H2915-bN it was 0.258; in the assay with 4H3057-bN, -0.442; with 4H319-bN it was -0.961; with 4H3277-bN, -1.47; in the assay with 4H348-bN it was -0.231. Moreover, the interaction score in the assay with 4H40-bN was -0.598; in the assay with 4H477-bN it was -0.81; with 4H492-bN, -0.992; in the assay with 4H741-bN it was -1.72.
